The values below come from patent publication US20110093983A1, “ALGAL GLYCEROL-3 PHOSPHATE ACYLTRANSFERASE” (National Research Council of Canada, priority 2008, published 2011).

Entries after “also recorded” stand apart in the source; their conditions may differ.

Test [1] in a line: GPAT activity assay of microsomal membrane fractions from yeast gat1 mutant expressing TpGPAT. The class given is biochemical, Saccharomyces cerevisiae. The method, then: FIG. 2 depicts GPAT activity of TpGPAT1 expressed in yeast gat1 mutant. The microsomal membrane fractions prepared from lysates of the induced yeast cells harboring TpGPAT1 or empty vector pYES2.1 were assayed for GPAT activity with 400 μM [^14C]glycerol 3-phosphate (2.5 nCi/nmol), 45 μM palmitoyl-CoA, 75 mM Tris-HCl, pH 7.5, 1 mM DTT, and 2 mM MgCl2 for 10 min at room temperature. After extraction of the phospholipid products, the radioactivity was measured by scintillation count.
FIG. 3 depicts substrate specificity of TpGPAT1. The microsomal membrane fractions prepared from lysates of the induced yeast cells harboring TpGPAT1 or empty vector pYES2.1 were assayed for GPAT activity with 400 μM [^14C]glycerol 3-phosphate (2.5 nCi/nmol) and different acyl-CoAs as acyl donor. After extraction of the phospholipid products, the radioactivity was measured by scintillation count. […]
Enzyme Assays: GPAT assays were conducted at 30° C. for 10 min. in a 200-pL reaction mixture containing 40 mM Hepes, pH 7.0, 400 pM ^14C-glycerol-3-phosphate (2.5 nCi/nmol), 67.5 pM palmitoyl-CoA and/or stearoyl-CoA or other fatty acyl donors, 1 mM DTT, 2 mM MgCl2, and 2.5 mg/mL BSA unless stated otherwise. […] The formed products were subjected to scintillation counting for radioactivity and thin layer chromatography analysis as described. […]

For test [2], the system named is yeast gat1 mutant. Description: Lipidomic analysis of phospholipids from yeast gat1 transformed with TpGPAT or GAT1, fed EPA or DHA. The class given is cell-based, Saccharomyces cerevisiae. As to conditions: tandem mass spectrometer lipidomics. The text has this: FIG. 4 graphically depicts the results of the lipidomic analysis (fatty acid composition) of the lipids from yeast gat1 mutants transformed with either TpGPAT1 or GAT1. Yeast cells expressing TpGPAT or yeast GAT1 were fed with EPA (20:5) or DHA (22:6) upon induction of the genes. Total lipids from the yeast cells were extracted and subjected to lipidomic analysis using a tandem mass spectrometer. The results are presented as the molar ratio of EPA- or DHA-containing phospholipids (PC, PE, PS, PI) in the total phospholipids.
To further determine the role of TpGPAT in the incorporation of VLGPUFAs into glycerolipids, yeast gat1 strain transformed with TpGPAT or GAT1 under the control of the GAL1 promoter was grown in the presence of EPA (20:5) or DHA (22:6) upon induction of the genes. Phospholipids were extracted and subjected to lipidomic analysis using a tandem mass spectrometer (testing conducted by the Kansas Lipidomics Research Center). […] It was thus concluded that TpGPAT has a role in controlling PUFA accumulation in glycerolipid.

Test [3] concerns yeast gat1 mutant. Description: Incorporation of fed EPA or DHA into TAGs and phospholipids of yeast gat1 mutant. The class given is cell-based, Saccharomyces cerevisiae. As to conditions: for mol % of FA in Phospholipids, DHA / mol % of FA in Phospholipids, EPA / mol % of FA in TAGS, DHA / mol % of FA in TAGS, EPA: 3-day induction. The method, then:
Yeast cultures were grown at 28° C. in the presence of 2% (w/v) glucose and 1% (w/v) Tergitol NP-40 (Sigma, St. Louis, Mo., US). Expression of the transgene was induced at OD600 nm 0.2 to 0.3 by supplementing galactose to 2% (w/v). At that time, the appropriate FAs were added to a final concentration of 50 or 100 μM in the presence of 1% (w/v) Tergitol NP-40 (Sigma, St. Louis, Mo., US). Yeast cells (20 ml) were harvested after a 3-day incubation, total lipids from yeast homogenates were extracted using the procedure of Schneiter (2005). Separation of neutral lipids and polar lipids was performed by running the thin layer chromatography plates (Si 250-PA, Baker, Phillipsburg, N.J.) in a developing solvent of hexane: ether: acetic acid (70:30:1, v/v) and identified by co-migration with known standards. Spots corresponding to TAG and phospholipid were scraped off the TLC plates and were transmethylated with methanolic HCl and quantified by gas chromatography as described previously. (Zheng and Zou, 2001).
Yeast gat1 strain transformed with TpGPAT or empty vector pYES2.1 was grown in the presence of EPA or DHA, while being induced by galactose. Triacylglycerols (TAGS) and phospholipids from the 3-day culture were extracted and analyzed by gas chromatography for fatty acid composition. […] It was not clear if this were due to the low GPAT activity for these VLCPUFAs or the lack of EPA and DHA-CoA in the cells.

B1: TpGPAT1: membrane-bound glycerol-3-phosphate acyltransferase from T. pseudonana, 674 amino acids, SEQ ID NO:2 (nucleotide SEQ ID NO:1) (protein, listed as Thalassiosira pseudonana)
chain: MGVEKKGTMMSELDYTKAQLAFFYIVVLLSLDMLNPVKIFLHVFPAIKSWHIATFAIACMSYIFIVNLRELLYFATKVFFHSILSIFFNDVTVVGRENIPSHGPVIFTSNHANQFMDGLMIMCTCQRTISYLVADKSWNRPIIGHLAWMMGGVPVKRAQDSACKGTGKISIDLNALAGSDAVINVVGKGTSFTSQIKAGDKIRLPNNAIGIKVESIESDESMSLKVEDGVAEVLSSHPFPEYVTYDILPRIDQKDVYQNVLEKLASGGTIGIFPEGGSHDRTDLLPLKVGVALIAYSELEKDGINVPIVPVGLNYFRAHRFRGKATVEFGSPTYIEPSTLADYKKGGADKRRVCNDLLARIENSMRSVIVSVPDFETLQTIHAARRLYRQDGRNETAEQRQDMGRRFAEGYKRVLLQLGGEPPEEWLSLQSRILAYQKELNELGIRDYQVVGLDHEEVELGSESQGHSKADTVLHRMNVFGHIVHLFVIAVLAALPAMLLNLPVGLASRIYSNRRRKVALAASKVKVKGYDVMLSERVLACIVLVPSLWVVYGLLLSLFTSLDGPSLAVCFTCFPLFSYWSIMATESGMVDIKDLRPYVMRMIPSARRRLAALPATRKALRSDLRAMIKKIGPSLGDIYYEKDLNWQKIQMETKRMSMEELDPAQKDEAAKKEE
As for B1, the “Substrate specificity for fatty acyl donors” value in test [1] (different acyl-CoAs as acyl donors (14:0, 16:0, 16:1, 18:0, 18:1, 22:6)) is reported as “highly specific for 16:0; also recorded: highest activity toward 16:0; also recorded: highly specific for saturated C16 fatty acids”. The “GPAT activity versus control cells transformed with empty pYES2.1 vector” value in test [1] (microsomal membrane fractions, yeast gat1, palmitoyl (16:0)-CoA as acyl donor) is on record as “about seven”. The “Molar percentage of DHA in phospholipids” value with yeast gat1 mutant [2] (yeast gat1 fed DHA (22:6)) is reported as 0.563%. In addition, in the test with yeast gat1 mutant [2] (yeast gat1 fed EPA (20:5)), the “Molar percentage of EPA in phospholipids” value was 3.696%. Further, in the test on yeast gat1 mutant [3] (feeding concentration 50 μM), the “mol % of FA in Phospholipids, DHA” value is 0.22 ± 0.03 mol %; the “mol % of FA in Phospholipids, EPA” value stood at 0.42 ± 0.01 mol %; the “mol % of FA in TAGS, DHA” value stood at 0.70 ± 0.06 mol %; the “mol % of FA in TAGS, EPA” value is 1.18 mol %. Further, in the test with yeast gat1 mutant [3] (feeding concentration 100 μM), the “mol % of FA in Phospholipids, DHA” value is listed as 0.34 ± 0.02 mol %; the “mol % of FA in Phospholipids, EPA” value stood at 0.85 ± 0.15 mol %; the “mol % of FA in TAGS, DHA” value is on record as 1.10 ± 0.07 mol %; the “mol % of FA in TAGS, EPA” value was 3.38 ± 0.78 mol %. The “Impact on incorporation of LCPUFAs into TAG or phospholipids compared to empty vector control” value in the test on yeast gat1 mutant [3] (yeast gat1 grown in presence of EPA or DHA, 3-day culture) is “did not have much impact”.
